# Laboratory results reported in paper doi:10.1101/386532 (bioRxiv, 2018).
# T1: GST-CHMP1B(4–199) (WT) (human, UniProt Q7LBR1 4-199)
# T1 sequence (looked up): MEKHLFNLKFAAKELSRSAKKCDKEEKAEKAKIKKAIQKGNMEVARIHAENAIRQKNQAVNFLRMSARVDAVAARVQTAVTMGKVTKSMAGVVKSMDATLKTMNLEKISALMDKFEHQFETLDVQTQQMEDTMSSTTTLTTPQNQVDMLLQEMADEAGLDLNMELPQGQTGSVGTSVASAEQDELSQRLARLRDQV
# B1: IST1(1–189) (IST1NTD) (domain or fragment, human, UniProt P53990 1-189, looked up)
# chain: MLGSGFKAERLRVNLRLVINRLKLLEKKKTELAQKARKEIADYLAAGKDERARIRVEHIIREDYLVEAMEILELYCDLLLARFGLIQSMKELDSGLAESVSTLIWAAPRLQSEVAELKIVADQLCAKYSKEYGKLCRTNQIGTVNDRLMHKLSVEAPPKILVERYLIEIAKNYNVPYEPDSVVMAEAPP
# B2: GST-CHMP1Bα6 (CHMP1B MIM1 element alone, residues 186–199) (peptide, UniProt Q7LBR1 186-199, looked up)
# chain: DELSQRLARLRDQV
# B3: CHMP1B(4–199) for structure determination (from His-SUMO fusion) (natural protein, human, UniProt Q7LBR1 4-199, looked up)
# chain: T1 sequence (looked up)
# What was measured:
# [1] = target: the molecule itself; assay: negative stain EM of filament assembly
# GST-CHMP1B(4–199) (WT) = target: T1, GST-CHMP1B(4–199) (WT); assay: SPR
# IST1(1–189) (IST1NTD) = target: B1; assay: SPR
# cryo-EM structure = target: the molecule itself; assay: cryo-EM structure
binder,measurement,setting,value
B1,binding result,[1],binds
same,Kd,GST-CHMP1B(4–199) (WT),92 µM
B2,Kd,IST1(1–189) (IST1NTD),91 µM
B3,binding result,cryo-EM structure,binds
